{
  "source": "paper PMC10702470",
  "about": "“Activation of Csm6 ribonuclease by cyclic nucleotide binding: in an emergency, twist to open” (Nucleic Acids Research, 2023)",
  "molecules": {"B1": {"name": "Streptococcus thermophilus Csm6’ (enzyme, UniProt A0A0A7HFE6 1-386, looked up)", "chain": "MRVLISAVGDTDPFRNFHDGSLIHIARKYRPEKVILIFSEHTAKKQGNIEKALFSIAPNYEPELIIHDPIISDNEVHIFDVMFQRFSDILQEYYTKEDEFILNLSSATPQIKSALFVINRLNGINVKAVQVSSPEHASNENIGHDNDENIDELIEVNKDNKVNFIDRTIEDNAEKFSQALLKKTARDFIEKFDYKAALDILDQLSDFPNLKSVREEIRDVVNCLSKQDVPKGLRHKKLKEEEQKILSAYLTIELQRERGNVSESFIRIKNLTEFILEDYIEKRYPGLIDEYCEDIQKYYLSLFDYSKLLKATKEFKLKRTIAPIIDMNSSRNKVAHSLSPLDSDAVKQLGIAMKTLKTLVREQYHFSQSDFNFYHDLNKILLTKLN", "notes": "Csm6’ ribonuclease of the type III-A CRISPR system of Streptococcus thermophilus; 386 residues in the monomer (CARF 1-173, 6H 174-239, HEPN 240-386); Cloned in pEV5HisTEV between NcoI and BamHI; Crystallised with cA6 (8PE3) and without (8PCW); also called StCsm6’; WT StCsm6’; source: E. coli C43 (DE3), purified (HisTrap, TEV cleavage, second IMAC, SEC)"}, "B2": {"name": "StCsm6’ variant C223A:C292A:N209C:R85C, MTSL spin-labelled (enzyme, Streptococcus thermophilus, UniProt A0A0A7HFE6 1-386, looked up)", "chain": "B1 chain with R85C, N209C, C223A, C292A", "modifications": "MTSL spin-labelled cysteine side chain R1 at 85 and 209", "notes": "Csm6’ ribonuclease of Streptococcus thermophilus, 386 residues in the monomer, with four substitutions; parent as m1; Variants were expressed and purified as described for the WT protein; also called R85C/N209C; R85R1/N209R1; source: E. coli C43 (DE3), purified as the WT protein, then spin-labelled with MTSL"}, "B3": {"name": "StCsm6’ variant C223A:C292A:N209C:D88C, MTSL spin-labelled (enzyme, Streptococcus thermophilus, UniProt A0A0A7HFE6 1-386, looked up)", "chain": "B1 chain with D88C, N209C, C223A, C292A", "modifications": "MTSL spin-labelled cysteine side chain R1 at 88 and 209", "notes": "Csm6’ ribonuclease of Streptococcus thermophilus, 386 residues in the monomer, with four substitutions; parent as m1; Variants were expressed and purified as described for the WT protein; also called D88C/N209C; D88R1/N209R1; source: E. coli C43 (DE3), purified as the WT protein, then spin-labelled with MTSL"}},
  "key": {"StCsm6’ (Csm6’) [1]": {"target": "T1, StCsm6’ (Csm6’) (Streptococcus thermophilus, UniProt A0A0A7HFE6)", "T1 construct": "full length, 386 residues, CARF 1-173, 6H 174-239, HEPN 240-386; E. coli C43(DE3), pEV5HisTEV, 8-His tag cut by TEV; symmetrical homodimer", "T1 sequence (A0A0A7HFE6 1-386)": "B1 chain", "assay": "fluorogenic RNase activation assay (RNaseAlert FAM)", "format": "biochemical", "settings": "activator, CARF domain; 1 µM dimer, 125 nM reporter RNA, MES pH 6.0, 30 mM NaCl, 20% glycerol, 45 °C, 30 min"}, "StCsm6’ (Csm6’) [2]": {"target": "T1, StCsm6’ (Csm6’)", "assay": "X-ray crystallography, […] Å", "format": "binding", "settings": "CARF domain site at dimer; occupancy 0.50, mixed with cleaved product"}, "[3]": {"target": "the molecule itself", "assay": "crystal structure; StCsm6’ co-crystallised with cA6 (1:1.5 molar ratio), 1.96 Å; homodimer"}, "[4]": {"target": "the molecule itself", "assay": "pulse dipolar EPR spectroscopy (PELDOR/DEER); spin-labelled protein at 50 μM in deuterated buffer with 50% glycerol, frozen solution, 50 K, Q-band, with and without 25 μM cA6; distances between spin labels in the two monomers"}},
  "note": "Substitutions are numbered along the chain they refer to. Names and notes keep the numbering of the source.",
  "data": [
    {"molecule": "Nc1ncnc2c1ncn2[C@@H]1O[C@@H]2COP(=O)(O)O[C@H]3[C@@H](O)[C@H](n4cnc5c(N)ncnc54)O[C@@H]3COP(=O)(O)O[C@H]3[C@@H](O)[C@H](n4cnc5c(N)ncnc54)O[C@@H]3COP(=O)(O)O[C@H]3[C@@H](O)[C@H](n4cnc5c(N)ncnc54)O[C@@H]3COP(=O)(O)O[C@H]3[C@@H](O)[C@H](n4cnc5c(N)ncnc54)O[C@@H]3COP(=O)(O)O[C@H]3[C@@H](O)[C@H](n4cnc5c(N)ncnc54)O[C@@H]3COP(=O)(O)O[C@H]2[C@H]1O", "note": "[cA6, cyclic hexa-adenylate]", "values": [
      {"measurement": "concentration for full activation", "setting": "StCsm6’ (Csm6’) [1]", "value": "~ 100 nM"},
      {"measurement": "X-ray crystallography, 1.96 Å", "setting": "StCsm6’ (Csm6’) [2]", "value": "electron density consistent with a molecule of cA6 bound to the StCsm6’ dimer"}
    ]},
    {"molecule": "B1", "values": [
      {"measurement": "stoichiometry N", "setting": "[3]", "value": 2}
    ]},
    {"molecule": "B2", "values": [
      {"measurement": "binding result", "setting": "[4]", "value": "binds"}
    ]},
    {"molecule": "B3", "values": [
      {"measurement": "binding result", "setting": "[4]", "value": "binds"}
    ]}
  ]
}
